Target: the molecule itself
Assay: crystal structure

B1: BrlR (transcriptional regulator BrlR from Pseudomonas aeruginosa) (natural protein, UniProt Q9HUT5 1-270, looked up)
chain: MLTIGQLARIFEISTKTLRHYDAIGLFVPARTGSDNGYRYYQPEQIEQLSRILALRRLDVPLEAIDRLKRDGALDDPQRLRHFLQRHQHTLREEISARQRLLAELDRTLATLAHWRIRNMHARIVERPAFSVVGMEYFGSAPGDTIGQLWERFIPREHEIAGKHDPEVSYGICAQQPNGEFHYVAGFEVQEGWPVPEGMVRFQVPAQKYAVFTHKGTAPQIAESFQAIYSHLLAERGLEPKAGVDFEYYDQRFRGPLDPNSQVDLYIPIY
- stoichiometry N: 4

Reference: paper doi:10.1101/188136 (bioRxiv, 2017)
